Experiments:
[1] = system: cancer, cardiac and neuronal cell lines; test: Categorisation of active ADPs as pro-/anti-apoptotic (Example 15); conditions: criteria of Example 15
[2] = Effectiveness of ADPs (Example 1, Table 6; cell death assays of FIGS. 10-13); assay type: cell-based; conditions: ADPs with N-terminal tumor penetrating peptide and C-terminal fluorescent tag; graded in words
Source text: FIGS. 10A-C show the sequences mapped, peptide blots, imaging to show expression and cell death assays for these three peptides. A) PPA-1 (PEPTIDE23) (SEQ ID NO:23), B) PPA4 (PEPTIDE19) (SEQ ID NO:19), C) PPA10 (PEPTIDE16 including FF at C-terminus) (SEQ ID NO:16).
FIGS. 11A-B show the sequences mapped, peptide blots, imaging to show expression and cell death assays for these HSP-70 peptides. A) PHA4 (PEPTIDE5) (SEQ ID NO:5), B) PHA5 (PEPTIDE13 plus C-terminal L) (SEQ IDS NO: 13).
FIGS. 12A-C show the sequences mapped, peptide blots, imaging to show expression and cell death assays for these p65 (RELA) peptides. A) PRA1 (PEPTIDE14) (SEQ ID NO:14), B) PRA8 (PEPTIDE8) (SEQ ID NO:8), C) PRA9 (SEQ ID Nos:33 and 37-45).
FIGS. 13A-D show the sequences mapped, peptide blots, imaging to show expression and cell death assays for these HSP-70 peptides. A) PAA1-1 (PEPTIDE11) (SEQ ID NO:11), B) PPA1-3 (PEPTIDE15) (SEQ ID NO:15), C) PAR1 (PEPTIDE19), D) Paint 1 (PEPTIDE7) (SEQ ID NO:7).
ADPs were first identified using Peptide SPOT analysis. Peptides were identified from AKIP1. PKAc, HSP-70 and p65 sequences. The identified ADPs were attached at the N-terminus to tumor penetrating peptide based on the CENDR rule (FIG. 9). A fluorescent tag was attached to the C-terminus for ease of visualization. […]

B1: KSQVISNAKNTVQGFKRFHGRAFSDPFVEAEKSNLAYDIVQWPTGLTGIKVTYMEEERNFTTEQVTAMLLSKLKETAESVLKKPVV (peptide)
chain: KSQVISNAKNTVQGFKRFHGRAFSDPFVEAEKSNLAYDIVQWPTGLTGIKVTYMEEERNFTTEQVTAMLLSKLKETAESVLKKPVV
Pro-apoptotic (anti-angiogenic) category [1]: Pro-apoptotic (anti-angiogenic)

B2: KSQVISNAKNTVQGFKRFHGRAFSDPFVEAEKSNLAYDIVQWPTGLTGIKVTYMEEERNFTIEQVTAMLLSKLKETAESVLKKPVV (peptide)
chain: KSQVISNAKNTVQGFKRFHGRAFSDPFVEAEKSNLAYDIVQWPTGLTGIKVTYMEEERNFTIEQVTAMLLSKLKETAESVLKKPVV
Effectiveness [2]: Moderate

— patent US11608367B2, “Peptides for angiogenic therapy” (The Regents of the University of California, priority 2018, dated 2023)
